Reference: US20060286611A1, “Antibodies against biotinylated histones and related proteins and assays related thereto” (Board of Regents of University of Nebraska, priority 2005, published 2006)
Entries after “also recorded” stand apart in the source; their conditions may differ. Non-standard residues stand in square brackets, D forms with d. No end group written: not given here. Me2 = dimethyl-lysine (dimethyl-epsilon-NH2-L-lysine); pS = N[C@@H](COP(=O)(O)O)C(=O)O; Orn = NCCC[C@H](N)C(=O)O

target: T1, biotinidase (Homo sapiens, UniProt P43251); assay: Enzymatic biotinylation of synthetic histone H2A and H2A.X peptides by biotinidase; type: biochemical; conditions: human plasma as source of biotinidase, 75 μmol/L biocytin, pH 8.0, 37° C., up to 45 minutes
T1 construct: 60 μL of human plasma; from tissue; host or cells: human plasma
T1 sequence (P43251 22-523): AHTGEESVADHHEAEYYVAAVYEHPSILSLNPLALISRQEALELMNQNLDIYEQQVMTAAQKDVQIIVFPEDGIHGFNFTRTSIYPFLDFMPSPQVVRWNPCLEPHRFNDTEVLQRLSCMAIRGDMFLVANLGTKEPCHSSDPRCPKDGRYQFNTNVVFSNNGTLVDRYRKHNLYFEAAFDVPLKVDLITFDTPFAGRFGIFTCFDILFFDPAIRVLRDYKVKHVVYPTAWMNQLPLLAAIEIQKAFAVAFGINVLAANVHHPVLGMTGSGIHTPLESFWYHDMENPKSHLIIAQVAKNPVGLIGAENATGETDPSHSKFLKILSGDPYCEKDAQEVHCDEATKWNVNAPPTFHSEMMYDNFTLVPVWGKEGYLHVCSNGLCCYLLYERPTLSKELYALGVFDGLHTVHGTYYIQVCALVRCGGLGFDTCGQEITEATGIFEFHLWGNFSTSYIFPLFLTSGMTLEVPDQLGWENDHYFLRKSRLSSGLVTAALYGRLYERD
Source text: In Examples described above, the inventors developed a procedure to identify amino acid residues in histones that are targets for biotinylation. […] Amino acid substitutions (e.g., lysine-to-alanine substitutions) in synthetic peptides are used to corroborate identification of biotinylation sites. In addition, amino acid modifications (e.g., acetylation of lysines) in peptides can be used to investigate the cross-talk between biotinylation of histones and other known modifications of histones.
Peptides from both the N- and C-terminal regions of histone H2A and H2A.X were included in the analysis of biotinylation sites. […] Reactions were quenched by adding an equal volume of Tricine gel loading buffer (Invitrogen, Carlsbad, Calif.).

Compound	enzymatic biotinylation by biotinidase, peptide-bound biotin probed with streptavidin peroxidase
K13A12-20: histone H2A N12-20, K13 substituted with alanine (AAAKTRSSR) [Peptide K13A12-20]	did not render K15 a good target
SEQ ID NO:76: histone H2A N7-14 with acetylation of K13 (GGKARAK(Ac)A)	decreased the biotinylation of K9
SHHKAKGK [Peptide C122-129, histone H2A amino acids 122-129]	good target for biotinylation; also recorded: good substrate for biotinylation
GGKARAKA [Peptide N7-14, histone H2A amino acids 7-14]	good target for biotinylation; also recorded: heavily biotinylated; also recorded: moderate target for biotinylation
K125,129A122-129: C122-129 with K125 and K129 substituted with alanine (SHHAAKGA)	considerable decrease of biotinylation
SEQ ID NO:75: histone H2A N7-14 with dimethylation of K13 (GGKARAK(Me2)A)	decreased the biotinylation of K9
Q6T,K5A1-9: Q6T1-9 with K5 substituted with alanine (SGRGATGGK)	decreased biotinylation only moderately
K125,127A122-129: C122-129 with K125 and K127 substituted with alanine (SHHAAAGK)	decreased only moderately
K13,15A12-20: histone H2A N12-20, both lysine residues substituted with alanine (AAAATRSSR)	no biotinylation was detectable
K125,127,129A122-129: C122-129 with all lysine residues substituted with alanine (SHHAAAGA)	no biotinylation was detectable
SEQ ID NO:73: histone H2A N1-9 with acetylation of K5 (SGRGK(Ac)TGGK)	moderate decrease
K15A,T16S12-20: T16S12-20 with K15 substituted with alanine (AKAASRSSR)	decreased moderately
K127,129A122-129: C122-129 with K127 and K129 substituted with alanine (SHHAAAGA)	considerable decrease of biotinylation
AKAKSRSSR [Peptide T16S12-20, N-terminus of histone H2A.X, amino acids 12-20]	good targets for biotinylation; also recorded: biotinylated only moderately
K5,9A1-9: histone H2A N1-9, both lysine residues substituted with alanines (SGRGAQGGA)	no biotinylation was detectable
K13A,T16S12-20: T16S12-20 with K13 substituted with alanine (AAAKSRSSR)	No biotinylation was detectable
Q6T,K9A1-9: Q6T1-9 with K9 substituted with alanine (SGRGKTGGA)	substantially decreased biotinylation
K13,15A,T16S12-20: T16S12-20 with both lysine residues substituted with alanine (AAAASRSSR)	no biotinylation was detectable
AKAKTRSSR [Peptide N12-20, histone H2A amino acids 12-20]	not a good target; also recorded: poor target for biotinylation
SGRGKTGGK [Peptide Q6T1-9, N-terminus of histone H2A.X, amino acids 1-9]	good targets for biotinylation
GKKATQASQEY [Peptide C132-142, C-terminus of histone H2A.X, amino acids 132-142]	not biotinylated
K5A1-9: histone H2A N1-9, K5 substituted with alanine (SGRGAQGGK) [Peptide K5A1-9]	did not decrease biotinylation
SEQ ID NO:74: histone H2A peptide containing acetylated K9 and free K5 (SGRGKTGGK(Ac))	not a target for biotinylation
ATVGPKAPSG [Peptide C122-131, C-terminus of histone H2A.X, amino acids 122-131]	not biotinylated
K15A12-20: histone H2A N12-20, K15 substituted with alanine (AKAATRSSR) [Peptide K15A12-20]	good target for biotinylation

target: T1, biotinidase; assay: Enzymatic biotinylation of synthetic histone H3 peptides by biotinidase; type: biochemical; conditions: biotinidase and biocytin, 45 min

Compound	enzymatic biotinylation by biotinidase, peptide-bound biotin probed with streptavidin-peroxidase
K4A1-9: histone H3 amino acids 1 to 9, K4 substituted with alanine (ARTAQTARK) [Peptide K4A1-9]	barely detectable
K23A16-23: histone H3 amino acids 16 to 23, K23 substituted with alanine (PRKQLATA) [Peptide K23A16-23]	weak
K18A18-25: histone H3 amino acids 18-25, K18 substituted with alanine (AQLATKAA) [Peptide K18A18-25]	barely detectable
K9A9-16: histone H3 amino acids 9 to 16, K9 substituted with alanine (ASTGGKAP) [Peptide K9A9-16]	poor target for biotinylation
K4,9A1-9: histone H3 amino acids 1 to 9, K4 and K9 substituted by alanine (ARTAQTARA)	no binding of biotin was detectable
NCCC[C@H](N)C(=O)O [ornithine]	not biotinylated
K18,23A16-23: histone H3 amino acids 16 to 23, K18 and K23 substituted with alanine (PRAQLATA)	no binding of biotin was detectable
K14A9-16: histone H3 amino acids 9 to 16, K14 substituted with alanine (KSTGGAAP) [Peptide K14A9-16]	heavily biotinylated
N18-25: histone H3 amino acids 18-25, including K18 and K23 (RKQLATKA; listed as Homo sapiens) [Peptide N18-25]	better substrate for biotinylation
N16-23: histone H3 amino acids 16-23, including K18 and K23 (PRKQLATK; UniProt P68431 17-24, looked up, fragment) [Peptide N16-23]	moderate target for biotinylation
TAAKSTGG [Peptide R8A6-13, histone H3 6-13, R8 substituted with alanine]	increased considerably
TARKSTGG [Peptide N6-13, native unmodified peptide, position 6-13 in histone H3]	moderate target for biotinylation
K18,23A18-25: histone H3 amino acids 18-25, K18 and K23 substituted with alanine (AQLATAAA)	No biotinylation was detected
K23A18-25: histone H3 amino acids 18-25, K23 substituted with alanine (KQLATAAA) [Peptide K23A18-25]	heavily biotinylated
K18A16-23: histone H3 amino acids 16 to 23, K18 substituted with alanine (PRAQLATK) [Peptide K18A16-23]	weak
TARKS(p)TGG (TARK[pS]TGG) [S10S(p)6-13, histone H3 6-13, phosphorylation of S10]	poor target for biotinylation
TAOKSTGG (TA[Orn]KSTGG) [Peptide R8O6-13]	increased considerably
